US20140220070A1, “USE OF PLANT CELL MEMBRANE TREATMENT OF OBESITY” (Thylabisco AB, priority 2005, published 2014)

Target: T1, pancreatic lipase (Homo sapiens, UniProt P16233)
T1 sequence (P16233 17-465): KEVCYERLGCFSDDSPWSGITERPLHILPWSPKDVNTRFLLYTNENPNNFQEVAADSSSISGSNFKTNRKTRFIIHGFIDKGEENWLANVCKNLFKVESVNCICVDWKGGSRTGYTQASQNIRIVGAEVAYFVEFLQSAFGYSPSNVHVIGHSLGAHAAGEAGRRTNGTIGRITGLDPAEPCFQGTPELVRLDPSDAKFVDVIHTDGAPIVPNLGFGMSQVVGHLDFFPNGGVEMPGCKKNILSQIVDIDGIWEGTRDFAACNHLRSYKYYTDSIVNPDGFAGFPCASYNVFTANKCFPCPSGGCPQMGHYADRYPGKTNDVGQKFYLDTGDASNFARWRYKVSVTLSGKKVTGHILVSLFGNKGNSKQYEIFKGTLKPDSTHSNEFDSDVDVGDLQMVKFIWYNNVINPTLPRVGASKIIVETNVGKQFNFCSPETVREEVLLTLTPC
Assay: Measurement of the lipase activity (pH stat, tributyrin)
Assay type: biochemical
Conditions: increasing amounts of membranes/proteins, lipase + colipase, pH 7.0, curves only in FIG. 1-3
Method: The lipase activity was measured according to the following (Borgstrom B. and Erlanson C. European J. of Biochemistry 37: 60-68, 1973): 15 ml of an aqueous solution containing 1 mM Tris buffer pH 7.0, 1 mM calcium chloride, 150 mM sodium chloride, 4 mM sodiumtaurodeoxycholate, 0.5 μg lipase, 1 μg of colipase.
To this mixture 0.5 ml of tributyrin is added together with increasing amounts of membranes and the released fatty acids measured using a pH stat.

inhibition of pancreatic lipase: inhibition
Substance: transhydrogenase: isolated membrane protein, transhydrogenase prepared from E. coli
